Assay results taken from PMC11272076 (Journal of Experimental Botany, 2024).

Key:
CLuc–CML13 = molecular target: T1, CLuc–CML13 (Arabidopsis thaliana, UniProt Q94AZ4 1-148); test: split reporter
T1 sequence: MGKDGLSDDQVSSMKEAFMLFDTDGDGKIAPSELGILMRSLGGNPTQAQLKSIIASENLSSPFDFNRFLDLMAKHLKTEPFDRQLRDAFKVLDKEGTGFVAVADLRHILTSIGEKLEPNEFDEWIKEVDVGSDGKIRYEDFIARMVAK

CLuc–CML14 = molecular target: T2, CLuc–CML14 (Arabidopsis thaliana, UniProt Q8VZ50 1-148); test: split reporter
T2 sequence: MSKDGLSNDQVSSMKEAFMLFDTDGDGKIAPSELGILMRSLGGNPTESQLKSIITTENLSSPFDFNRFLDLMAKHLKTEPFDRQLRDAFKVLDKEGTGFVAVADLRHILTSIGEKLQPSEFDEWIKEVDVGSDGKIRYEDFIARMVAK

CLuc–CML24 = molecular target: T3, CLuc–CML24 (Arabidopsis thaliana, UniProt P25070 1-161); test: split reporter
T3 sequence: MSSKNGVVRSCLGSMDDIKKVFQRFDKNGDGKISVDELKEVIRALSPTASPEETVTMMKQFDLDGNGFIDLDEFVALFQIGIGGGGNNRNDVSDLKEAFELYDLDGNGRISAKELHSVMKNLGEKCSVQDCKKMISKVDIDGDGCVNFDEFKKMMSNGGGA

dansylated CaM = dansylated CaM (petunia, UniProt P62199 1-149, covalent dansyl label (site not stated)); test: steady-state dansyl fluorescence spectroscopy
dansylated CML13 = molecular target: T4, dansylated CML13 (Arabidopsis thaliana, UniProt Q94AZ4 1-148, covalent dansyl label (site not stated)); test: steady-state dansyl fluorescence spectroscopy
T4 sequence: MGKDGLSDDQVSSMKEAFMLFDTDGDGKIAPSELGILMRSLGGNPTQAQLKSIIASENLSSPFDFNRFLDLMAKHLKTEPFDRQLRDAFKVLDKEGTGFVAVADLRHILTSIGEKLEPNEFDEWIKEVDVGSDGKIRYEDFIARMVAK

dansylated CML14 = molecular target: T5, dansylated CML14 (Arabidopsis thaliana, UniProt Q8VZ50 1-148, covalent dansyl label (site not stated)); test: steady-state dansyl fluorescence spectroscopy
T5 sequence: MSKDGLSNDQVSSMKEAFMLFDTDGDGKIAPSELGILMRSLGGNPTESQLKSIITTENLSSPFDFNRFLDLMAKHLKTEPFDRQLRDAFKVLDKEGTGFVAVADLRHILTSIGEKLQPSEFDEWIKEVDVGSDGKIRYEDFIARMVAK

Binder	fold signal above the CML42 control (CLuc–CML13)	fold signal above the CML42 control (CLuc–CML14)	fold signal above background (CML42 control) (CLuc–CML24)	binding result (dansylated CaM)	binding result (dansylated CML13)	binding result (dansylated CML14)
myosin ATM1 neck region (residues 848–943), NLuc fusion (domain or fragment) RTLHGILRVQSSFRGYQARCLLKELKRGISILQSFVRGEKIRKEFAELRRRHKAAATIQSQVKSKIARIQYKGIADASVVIQSAIRGWLVRRCSGD	~35 fold	~35 fold	~2 fold			
myosin VIII-A neck region (residues 828–930), NLuc fusion (domain or fragment) RNRTLHGILRLQSYFRGHQARCRLKELKTGITILQSFVRGEKMRKEYTELLQRHRASAAIQSHVKRRIASQQYKATVDASAVIQSAIRGELVRRCAGDIGWLS	~200 fold	~200 fold	~2 fold			
LHGILRVQSSFRGYQARCLLKEL [ATM1-IQ1 synthetic peptide]				binds	binds	binds
LQGIVGLQKHFRGHLSRAYFQNM [ATM2-IQ1 synthetic peptide]				binds		
myosin ATM2 neck region (residues 878–967), NLuc fusion (domain or fragment) RKKVLQGIVGLQKHFRGHLSRAYFQNMRKVTLVLQSYIRGENARRLFDTEAKFHADSVSEASTDELSAVIHLQSAVRGWLARKHFNSMQR			~2 fold			
